Measured values reported in patent publication US20090324700A1, “METHODS AND COMPOSITIONS FOR THE INHIBITION OF CATHEPSINS” (priority 2003, published 2009).

Experiments:
[1] = biological target: T1, human cathepsin L (Homo sapiens, UniProt P07711); assay: Protease specificity of Spi2A: cathepsin L; format: biochemical; conditions: protease 20 nM, Spi2A 200 nM, 1 h at 37° C; FIG. 6B
T1 construct: purchased Calbiochem or Athens Research and Technology
Method: Protease specificity of Spi2A. RelA^−/− MEFs were transduced with retrovirus encoding Spi2A with a C-terminal 3×FLAG epitope tag and Spi2A-3×FLAG purified using a method described previously (Cooley et al., 1998). Briefly, cells (3×10^9) were lysed and Spi2A-3×FLAG (75 μg) purified by batch Q-Fast Flow ion-exchange chromatography (Pharmacia Biotech) after elution at 160-220 mM NaCl followed by anti-FLAG antibody columns, performed according to manufacturer's instructions (Sigma-Aldrich). Spi2A-3×FLAG was dialysed into PBS and stored as aliquots at −80° C. until needed.
Proteases were purchases from the manufacturers (Calbiochem or Athens Research and Technology) except granzymes A and B which were purified as described (Hanna et al., 1993) and cathespin V and K, which were purified as described (Bromme et al., 1999; Linnevers et al., 1997). Proteases (20 nM) were incubated in the appropriate assay buffer with Spi2A at 200 nM (at least 10-fold excess of inhibitor to maintain pseudo-first order conditions) for 1 h at 37° C. Control samples included only the enzyme, without the inhibitor. At the end of 1 h protease activity was assayed. […] Substrate hydrolysis was measured in a fluorescence microtiter plate reader (Spectramax Gemini XS, Molecular Devices). Percentage inhibition was calculated from the residual enzyme activity compared to no Spi2A controls. […]

[2] = biological target: T2, cathepsin B (Mus musculus, UniProt P10605); assay: Cathepsin B activity in crude cytoplasmic extracts, RelA^−/− MEFs; format: cell-based; conditions: TNF-α 0.2 ng/ml, CHX 0.1 μg/ml; FIG. 1C, 7A
T2 construct: endogenous in cells; host or cells: RelA-/- or RelA+/+ MEFs (retrovirally transduced with GFP, RelA, Spi2A or antisense Spi2A)
Method: Survival Assays. Although RelA^−/− MEFs are markedly more sensitive to TNF-α compared to RelA^+/+ MEFs, low levels of CHX (0.1 μg/ml) were used in the survival assays. This was to suppress any protective activity of constitutively active non-RelA NF-κB molecules that are present in RelA^−/− MEFs (FIG. 4). Thus, RelA^−/− MEFs were treated with CHX and TNF-α (R&D) and the number of live GFP-positive adherent cells was counted by flow cytometry after 16 h, if not indicated otherwise. Live cells were defined as those that excluded propidium iodide (PI-negative) and had the appropriate size, as defined by forward and side scatter characteristics (Coligan et al., 1995). For RelA^+/+ MEFs, TNF-α-cytotoxicity was determined after 16 h with CHX (10 μg/ml), if not indicated otherwise. Cathepsin B activity was inhibited by a 1 h pre-treatment of MEFs with CA-074 Me (30 μM) (Peptide Institute). […] RelA^−/− MEFs were treated with (10-50 μM) sphingosine (Calbiochem) and the number of live GFP-positive adherent cells was counted by flow cytometry after 2 h.
Death effector assays. Death effector pathways were induced in […] MEFs by treatment TNF-α (0.2 ng/ml) and CHX (0.1 μg/ml). […] Protein concentration was determined by Lowry assay (DC-protein assay kit, Biorad). […]
Colorimetric assays for capases were performed in reaction buffer (50 mM HEPES, pH 7.4, 100 mM NaCl, 10 mM DTT, 1 mM EDTA, 10% glycerol, 0.1% CHAPS) at 37° C. on crude cytoplasmic extracts using p-Nitoaniline (pNA)-labeled substrates (Calbiochem) specific for caspases 3 and 7 (Ac-DEVD-pNA), caspase 8 (Ac-IETD-pNA), caspase 9 (Ac-LEHD-pNA), each at 0.2 mM. Specific activity was determined by subtracting the apparent activity detected after 1 h pre-incubation of extract with the pan-caspase inhibitor Z-VAD.fmk at 50 μM (ICN Biomedicals Inc), then normalizing for the amount of protein. […] Specific activity was determined by subtracting the apparent activity detected after 30 min pre-incubation of extract at 37° C. with the cathespin B inhibitor CA-074 Me at 30 μM (Peptide Institute) then normalizing for the amount of protein.

T1 sequence (P07711 114-333): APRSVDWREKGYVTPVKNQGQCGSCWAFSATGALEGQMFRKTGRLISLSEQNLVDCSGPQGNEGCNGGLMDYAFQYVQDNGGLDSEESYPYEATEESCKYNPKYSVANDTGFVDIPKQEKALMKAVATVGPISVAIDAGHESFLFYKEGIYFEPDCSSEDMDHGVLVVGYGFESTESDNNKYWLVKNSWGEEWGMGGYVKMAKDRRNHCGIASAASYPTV
T2 sequence (P10605 80-333): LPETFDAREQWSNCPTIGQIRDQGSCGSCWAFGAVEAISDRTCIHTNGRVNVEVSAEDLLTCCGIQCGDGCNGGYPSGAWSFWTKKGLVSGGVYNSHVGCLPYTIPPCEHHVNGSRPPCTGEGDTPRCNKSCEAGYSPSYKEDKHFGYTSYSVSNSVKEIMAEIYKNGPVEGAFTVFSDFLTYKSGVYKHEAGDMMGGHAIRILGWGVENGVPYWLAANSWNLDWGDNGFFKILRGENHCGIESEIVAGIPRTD

B1: Spi2A: murine Spi2A polypeptide, SEQ ID NO:2; purified as C-terminal 3×FLAG protein or expressed from MIGR1 retrovirus in cells and bone-marrow chimeras (protein, listed as Mus musculus)
chain: MAGVSPAVFGCPDVTLGRNTAVREVQENVTSVDSLTLVSSNTDFAFSLYRKLVLKNPDENVVFSPFSICTALALLSLGAKSNTLKEILEGLKFNLTETPEPDIHQGFRYLLDLLSQPGNQVQISTGSALFIEKHLQILAEFKEKARALYQAEAFTADFQQPLKATKLINDYVSNHTQGKIKELISGLKESTLMVLVNYIYFKGKWKNPFDPNDTFKSEFYLDEKRSVIVSMMKTGYLTTPYFRDEELSCTVVELKYTGNASAMFILPDQGRMQQVEASLQPETLRKWKNSLKPRMIHELRLPKFSISTDYSLEHILPELGIREVFSTHADLSAITGTKDLRVSQVVHKAVLDVAEKGTEAAAATGMAGVGCCAVFDFLEIFFNRPFLMIISDTKAHIALFMAKVTNPERSTNFPNGEGASSQRLESKRLCFGDPLCLIGQ
modifications: C-terminal 3xFLAG tag
notes: purified as C-terminal 3×FLAG protein or expressed from MIGR1 retrovirus in cells and bone-marrow chimeras
- Inhibition of protease by Spi2A (percentage inhibition) [1]: extended to all of the lysosomal, papain-like proteases that were examined
- Cytosolic cathepsin B activity after TNF-α, retrovirally transduced cells [2]: inhibited the induction
